The values below come from the DeepSol protein solubility set.

This series can be described thus: soluble on expression in E. coli; label from the status in PepcDB or PDB records.
For “MGSDKIHHHHHHMQREKVDVLVIGAGPAGTVAASLVNKSGFKVKIVEKQKFPRFVIGESLLPRCMEHLDEAGFLDAVKAQGFQQKFGAKFVRGKEIADFNFSDQFSNGWNWTWQVPRGNFDKTLADEAARQGVDVEYEVGVTDIKFFGTDSVTTIEDINGNKREIEARFIIDASGYGRVIPRMFGLDKPSGFESRRTLFTHIKDVKRPVAAEMEGNRITAVVHKPKVWIWVIPFSNGNTSVGFVGEPSYFYYYTGTPEERMRAMIANEGHIAERFKSEEFLFEPRTIEGYAISASKLYGDGFVLTGNATEFLDPIFSSGATFAMESGSKGGKLAVQFLKGEEVNWEKDFVEHMMQGIDTFRSFVTGWYDGTLHAVFFAKNPDPDHKRMICSVLAGYVWDKNNPFVKKHNTILKTLAKVIQMGEEA”, the “soluble on expression in E. coli” value is on record as “not soluble”.
On to “MAHHHHHHMHMFTNDWKSILAPLKSCRIKQQFDDREFLADFAMGLKLDFNNKYLVLDASTELLKFTAIESSDCCNRNCLPKMCIPINMKILTYGRELSRPDIVVEKDCSCTMLCLNRPTIKMYDFSNNNNKELIGTIKAPFSCCSYKFDLYDSAMRKIIYMDDTCCQLSILFPCPCGPFKFSNFFLRDAKTHEKVAHLQKEVPFLKFVKRDIDNYTLNFEQVQNPEWKMMLLAFSLFMDYIYYDRK”, for which the “soluble on expression in E. coli” value is on record as “not soluble”.
Regarding “MNEEQRKAGTINILAERDRKAEKDYSKYFEQVYQPPSLKEAKKRGKQEVQYNRDFHIDEKYKGMGKGRTFLIKTYGCQMNAHDTEVMAGILNALGYSATSDINEADVILINTCAIRENAENKVFSEIGNLKHLKKERPDCLIGVCGCMSQEESVVNKILKSYQNVDMVFGTHNIHHLPEILEEAYLSKAMVVEVWSKEGDIIENLPKVRDGHIKAWVNIMYGCDKFCTYCIVPFTRGKERSRRPEDIIDEVRELAREGYQEITLLGQNVNSYGKDIEGLDYELGDLLEDISKIDIPRVRFTTSHPWDFTDRMIEVIAKGGNIVPHIHLPVQSGNNQVLKIMGRKYTRESYLDLVSRIKEAIPNVALTTDIIVGYPNETEEQFEETLSLYDDVQFEHAYTYLYSQRDGTPAAKMKDNVPLEVKKERLQRLNKKVGIYSQQAMSQYEGKIVTVLCEGSSKKDENVLAGYTDKNKLVNFKGPRESIGKLVDVKIDEAKQYSLNGTFIQEHQRSMVTQLEHHHHHH”, the “soluble on expression in E. coli” value is “soluble”.
With “MSLKPNYLEERICLNVLANSVENAQACYEAAEGHVVLGVLSKNYETDEAAIDDMKKYQAATNNALSVGLGAGDPNQSQMVARLSEVLQPQHVNQVFTGVGASRALLRQDETVINGLVSPTGKVGYVNIATGPLSSGAPAAEVPIETAIKLLKDMGGSSIKYFPMKGLAHKEEYQAVAAACAKYDFYLEPTGGIDLENFEEIVQIAVDAGVKKIIPHVYSSIIDQETGDTRTEDVKTLLTMMKKTLNK”, the “soluble on expression in E. coli” value is recorded as “not soluble”.
To “MIMRWGEKRYHSLDYELKQMFKEKVYKIALNGGMTCPNRDGHVGTGGCIFCSSQGSGDFAGSARLSIAEQIRQGKADISSKRPVHSYIAYFQAFTNTYAPVETLRALYMEAIADPEVKILSIATRPDCLGADVLALLDEINQIKPVWVELGLQTIHPETSAYIRRGYELSVFEQAVKELRAIGITVIVHTILYLPGETKDDMLDTIHYLNHMDIQGIKLQLLHVLTHTDLAADYEKHPFYIPDMQDYIQFLGTCIAHLNPEIVIHRLTGDGPKDLLIAPLWTSNKRTVLNQLHSHLKEQDIWQGKEYYV” belongs “not soluble”; to “MTPIEAKFARLSTDHAPDQEVRQGNAGLDGLLRGDTLPGTPVDFSHGDVNTSAFAPTPGSLQEFVQGVERGGEQAYTEYRGAADLRLRVAAHLAEFTGAPVDGANELIITPGTQGALFLAIASSVTAGDKVAIVRPDYFANRKLVEFLGDEIVPVDMRHLERDSGAGLDLDQLEAAFKAGVRTFLFSNPNNPAGVVYSPEEIAQIADLARHYDATVIVDQLYSRLLYTGTRYTHLRALPQAPANVITIMGPSKTESLSGYRLGVAFGAAHLIDRMEKLQAIVSLRAPGYCQAVLRTWFQEPAGWMNERIAQHQAIRDDLIRVLRAVPGLAVRAPEAGSYLFPRLPRLAVGLHDFVRILRTQAGVTVTPGTEFSPHADDSIRLNFSQNHAAAVQAIERTAQLIERYRA”, “not soluble”; to “MSLITTRTARQCGQADYGWLQARYTFSFGHYFDPKLLGYASLRVLNQEVLAPGAAFQPRTYPKVDILNVILDGEAEYRDSEGNHVQASAGEALLLSTQPGVSYSEHNLSKDKPLTRMQLWLDACPQRENPLIQKLALNMGKQQLIASPEGAMGSLQLRQQVWLHHIVLDKGESANFQLHGPRAYLQSIHGKFHALTHHEEKEGHHHHHH”, “not soluble”.
Consider “VKSLFLLVLGNTEISTIPGISVAGATPELTKITPVADAEYLFYEKPLTIDTIPVTPEGHPTPAIITKAARELSNFPILVVRGGTYLAPLIPHVHISNVVGRDFRREPALPEVEVIIERAKLLGKELEKIANEIVIGESTPGGTTTAQAILWALGYEAKTSSASPENPQELKEKVIKEGFKRVGIEKGGLKDKPLEALKEFGDPMIATVLGLSLGFGGDVVLAGGTQMLAVSALLKSLGEDLSRFMIATTRWVVEDPSATFIETAREIGIISYVAELDFSKSKFKGLRDYERGYVKEGVGAGGATWLAV”, for which the “soluble on expression in E. coli” value is listed as “not soluble”.
Then “LFTESAKAVLAIAQEEAKYFRHQSVGSEHLLLALVLEPNGIAGKTLRQLNTDTEDIREEIEHLSGYGTMQSPMGNNNLYLPYSPRAKQIFAYAGDEAKRLGAQKIGTEHLLLGLLRDEEILASRILVNLGLSLSKMRQLLLKKMG”, with “not soluble”; and “MFNKASFLTRLVASSVRVSEAAGGLIKNVMAGGDLKIIDKSEHGSGYDPQTEADRRAQYCIVQSLQKHFKNINIIGEEEDTTACPEIEMGFSADVLQMERLMSTELKNIQENDVVVWVDPLDGTSEVALAVKNKNMALLEQVTVLIGIAYKGRPVAGIIHQPYHEKLGRTVWAIQGCGVHGVVPATGNAQKIVVTTRSHLSESVSNALEALKTRNLADSVEKVGGAGFKVLKVLEGCAAYVFASAGCKKWDTCAVEAVLTAAGGTLTDISGRDIRYEPGVQLNNTGGVLATASWVKHKDYIDTIPQEIKNMLPEISSKK”, with “not soluble”; and “MVHVSGTKVKVVKKKLTKFKRHESDRYRRVAPSWRKPKGIDNRVRRRFRGMRAMPTIGHGSDRRTRFVLPNGYKKVLVQNVKDLDMLLMQSYKYIGEIGHGVSAKSRKGIVERAAQLNIKLTNGNARLRTEESE”, with “not soluble”.
To “MAHHHHHHMGCGGSKPNAVSRDVEEKALYLRGIKESIDKAEGNMLATLHALQALMRSYESTSYSFVELAHGTDGNTSLKAKTFESDMRTLKDSGIMPKLQKDLGQSVSSLGKDIRAKHDKANVVYREMTQANDAYCKLRERVNGIEKSYAKKNKPVSECPSYTKNCKERDVCLARYEGLKKVFLTLVEELRTLIRSYVTAGLTRYAFSTADYAQQLVNSLQKYKSE” belongs “soluble”; to “MPSIYITGVDPTIVKIHEIQGTGTASPLVNNVVTIEAIVVGDFQDGDGDISRNLRGFYVQEEDADVDGNVATSEGIFIFENGNFITDVNVGDKVQITGTVDEFFGETQIDTITNITVISSGNTLPTAANITLPTAGTTESQGGTPQPDLEAFEGMLVKFTDTLTITEMFNLDRFNEIKLSQGGRPQQFTQFNDANVAGYGAYREEIGARTITYDDGLSVQNAEISNLDGFGSSFSTASDIRMGDTINNLTGVLSYQWAGNASSGATWRVRSAVDGTNQFTKVNDRPVTPENVGGSLKVTGFNVLNYFKTIDLEHHHHHH”, “not soluble”; to “AHHHHHHGSLLPDWKIRKEILIEPFSEESLQPAGYDLRVGREAFVKGKLIDVEKEGKVVIPPREYALILTLERIKLPDDVMGDMKIRSSLAREGVIGSFAWVDPGWDGNLTLMLYNASNEPVELRYGERFVQIAFIRLEGPARNPYRGNYQGSTRLAFSKRKKL”, “soluble”.
Then “MGSDKIHHHHHHMLKSCPMNPRLDALHPYPFEKLRALLADAGKPTHDLPPINLSIGEPKHAAPACVGQAIAANLAGLSVYPSTKGEPALRQAISQWLSRRYSIPAPDPESEVLPVLGSREALFAFAQTVIDPSAGALVVCPNPFYQIYEGAALLAGATPYYVNADPARDFGCDWARVPDEVWRRTQLVFVCSPGNPAGNVMSLEEWRTLFELSDRHGFVIAADECYSEIYLDEDNPPLGSLQAARRLGRDRYTNLVAFSSLSKRSNVPGMRSGFVAGDAALLARFLLYRTYHGSAMSPVVSAASIAAWSDETHVQENRRQYRAKFEAVLPILQNVLDVRAPQASFYLWAGTPGSDTAFARELYGRTGVTVLPGSLLAREAHNANPGQGRIRIALVAPLDQCVQAAERIAHFARTSI”, with “not soluble”; and “MLSKKLHDALNDQMNFEFYSAHAYMAMAAYCTAESYDGFANFFLVQAEEERFHAMKLYNYINDRGERAIITGFDNPNNEYESVLNAFEVALEHEREVTKRIYNLSDIAWDEREHATITFLKWFVDEQVEEEASFDSIIQKLKRITSDSNALFMLDAELEKRTFTPPAE”, with “not soluble”; and “MSLSKKFYPNSQAFLLEKKDLKTIDRKINANKGNFGHIYIVANASAGTLAGLGALNFGAGLVSLVAQKSFSPLLMLKEKIENNASAIALGMGLENLDFLKDEILQNTPLILDANCFLSEALLWYLNRKDVVITPHPKEFIKLYKMCFDENLDIETLQKNRFFYARKFSQNYDCVLVLKGANPIIVQKEKLFVVNLGNQALAKGGSGDVLSGMIAAHLGFGFSALEAAKNATLAHGLVAKKYKFNKNSFDALKLIKGLKCLEGHHHHHH”, with “not soluble”.
With “MRLKDKAVLITGAAHGIGRATLELFAKEGARLVACDIEEGPLREAAEAVGAHPVVMDVADPASVERGFAEALAHLGRLDGVVHYAGITRDNFHWKMPLEDWELVLRVNLTGSFLVAKAASEAMREKNPGSIVLTASRVYLGNLGQANYAASMAGVVGLTRTLALELGRWGIRVNTLAPGFIETRMTAKVPEKVREKAIAATPLGRAGKPLEVAYAALFLLSDESSFITGQVLFVDGGRTIGAAPA”, the “soluble on expression in E. coli” value is given as “soluble”.
For “MGSDKIHHHHHHMKLGVFTVLYGNLSFTEMLDKVKGAGVQAVEIGTGGYPGDAHCPRQELLTSAEKRKRYQEELEQRGLLLGSFSCHGNPLSPDEAFRKESDQALRETIELAGKMNVPVVNCFSGTAGDHEGAKYPNWPVAPWPNEYRHILEWQWEEKLIPYWKEIGEWAETHGVKVALELHGGFLVHTPYTLLTLRKATSPAIGANLDPSHLWWQGIDPVAAIKILGREGAIHHFHAKDTFIDQEQVNMYGLTDMQPYTHIQTRAWNFRSVGCGHDLHEWTQMISALRTYGYDHVISIEHEDPLMSIDEGFETAVRNLKPLLIKEKPTEMWWA”, the “soluble on expression in E. coli” value is listed as “not soluble”.
To “MKKYTLIATAPMGIEAVVAKEVRDLGYECKVDNGKVIFEGDALAICRANLWLRTADRIKVQVASFKAKTFDELFEKTKAINWRSFIPENGKFPVIGKSVKSTLASVPDCQRIVKKAIVEKLKLQSGKANDWIEETGAEYKVEISLLKDQALITLDSSGTGLHKRGYRVDQGGAPIKETLAAALVQLTNWTPDRPFVDPFCGSGTIAIEAALIGQNIAPGFNRDFVSEDWEWIGKDLWNKARLEVEEKANYDQPLTIFASDIDHRMVQIAKENAEEAGLGDLIQFKQMQVKDFTTNLEFGVIVGNPPYGERLGEKKAVEQMYKEMGQAFEPLDTWSVYMLTSNENFEEAYGRKATKKRKLFNGFIKTDYYQYWSKVRPQRKKTENA” belongs “not soluble”; to “MNFDEIDKTFGTKNRDQGYDLLKARLDKGDRSVEVLWRLAQVIHEKSACVPKAQRKASVTEGLKFAEEAVQKDPNHFKALKWNAVLTGQATEYMATKEKLECSKKFKELLDKTLAKEPKDTAVLHLRGRYKYSVASLTWLEKKLAATFYQQPPSHSYEEANEDFLAAYKVNPKWMENTFYVSKCYVAIKDKANARKYLTEVCDIEPYSDAEQEFADDAKQMLSKL”, “soluble”.
